# B1: Mycobacterium tuberculosis DNA gyrase subunit B (enzyme)
# chain: MAAQKKKAQDEYGAASITILEGLEAVRKRPGMYIGSTGERGLHHLIWEVVDNAVDEAMAGYATTVNVVLLEDGGVEVADDGRGIPVATHASGIPTVDVVMTQLHAGGKFDSDAYAISGGLHGVGVSVVNALSTRLEVEIKRDGYEWSQVYEKSEPLGLKQGAPTKKTGSTVRFWADPAVFETTEYDFETVARRLQEMAFLNKGLTINLTDERVTQDEVVDEVVSDVAEAPKSASERAAESTAPHKVKSRTFHYPGGLVDFVKHINRTKNAIHSSIVDFSGKGTGHEVEIAMQWNAGYSESVHTFANTINTHEGGTHEEGFRSALTSVVNKYAKDRKLLKDKDPNLTGDDIREGLAAVISVKVSEPQFEGQTKTKLGNTEVKSFVQKVCNEQLTHWFEANPTDAKVVVNKAVSSAQARIAARKARELVRRKSATDIGGLPGKLADCRSTDPRKSELYVVEGDSAGGSAKSGRDSMFQAILPLRGKIINVEKARIDRVLKNTEVQAIITALGTGIHDEFDIGKLRYHKIVLMADADVDGQHISTLLLTLLFRFMRPLIENGHVFLAQPPLYKLKWQRSDPEFAYSDRERDGLLEAGLKAGKKINKEDGIQRYKGLGEMDAKELWETTMDPSVRVLRQVTLDDAAAADELFSILMGEDVDARRSFITRNAKDVRFLDV
# notes: also called Mtb GyrB; gyrB
# Molecular target: T1, Mycobacterium tuberculosis DNA gyrase subunit A (Mycobacterium tuberculosis, UniProt P9WG47 1-838)
# T1 construct: also called Mtb GyrA; Mtb gyrase subunit A
# Assay: SEC
# Conditions: both partners purified
# T1 sequence (P9WG47 whole entry): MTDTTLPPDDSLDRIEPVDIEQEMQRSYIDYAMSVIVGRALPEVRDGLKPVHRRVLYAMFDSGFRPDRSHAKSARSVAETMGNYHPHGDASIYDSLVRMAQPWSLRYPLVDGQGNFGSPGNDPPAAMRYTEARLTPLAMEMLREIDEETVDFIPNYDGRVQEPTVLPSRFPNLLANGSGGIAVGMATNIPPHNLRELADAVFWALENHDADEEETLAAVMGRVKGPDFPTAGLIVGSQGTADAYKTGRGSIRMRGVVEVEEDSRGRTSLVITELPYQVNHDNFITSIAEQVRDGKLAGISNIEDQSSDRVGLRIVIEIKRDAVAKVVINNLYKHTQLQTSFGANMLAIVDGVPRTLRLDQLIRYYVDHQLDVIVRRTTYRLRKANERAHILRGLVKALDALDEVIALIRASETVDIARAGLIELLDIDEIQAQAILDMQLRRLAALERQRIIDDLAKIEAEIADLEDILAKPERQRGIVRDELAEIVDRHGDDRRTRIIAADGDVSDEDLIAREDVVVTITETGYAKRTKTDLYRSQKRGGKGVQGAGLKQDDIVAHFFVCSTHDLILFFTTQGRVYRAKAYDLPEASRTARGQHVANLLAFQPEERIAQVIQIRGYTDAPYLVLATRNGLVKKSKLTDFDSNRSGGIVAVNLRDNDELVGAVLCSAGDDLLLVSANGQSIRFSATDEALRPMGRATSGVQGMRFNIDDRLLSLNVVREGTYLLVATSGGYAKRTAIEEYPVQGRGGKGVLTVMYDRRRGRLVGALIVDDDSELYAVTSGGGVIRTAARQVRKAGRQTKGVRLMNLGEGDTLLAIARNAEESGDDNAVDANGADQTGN
binder,measurement,value
B1,binding result,binds

# Source: article PMC10731242, “Macromolecular crowding potently stimulates DNA supercoiling activity of Mycobacterium tuberculosis DNA gyrase” (The Journal of Biological Chemistry, 2023)
